Publication PMC3790952 (Chembiochem, 2013)

What was measured:
purified protein = substrate: CC(C)=CCC/C(C)=C/CC/C(C)=C/CC/C(C)=C/COP(=O)(O)OP(=O)(O)O; assay: purified protein; type: biochemical, Streptomyces sp.; conditions: 10 mM MgCl2, 30 °C, GGDP 10-200 μM
SEC = molecular target: the molecule itself; assay: SEC

B1: DtcycA (enzyme, Streptomyces sp. SANK 60404, UniProt M1V9Q0 1-371, looked up)
chain: MTDPAVTPLAFSIPQLYCPFPTAIHPEVDTLTRAGMDFMTHHGFCNTEADRLVVANIDAGAIVARWYPNPDFPVDRLQMVTDFLYLYFLIDDLRFEVINSDTGLAGPIALFAQHLDLWEYPQAHRREELDLFHQAIHDLASRMAELTTPTKAARMRRSINGWFLALLREIALFNDDHAVMAEEYLPIRVVTVASRLMIDVNGFICPAEVPGDEWYSLKVQAAAEAAMSVCLYDNELYSAGKEQWLKSRATAHDRRPRNLVALIQAQTGGSTEHALQEVAEYRNRTVCLYLNLRSQLEKTASPALLAYLSVLDGVISGNLDAHATSSRYHNPDGHHPHAIAFTPLRTTDECSARAHTPIAPPIAWWWEQLDQ
Km (purified protein): 93.7 ± 8.4 µM | kcat (purified protein): 0.0467 s⁻¹ | stoichiometry N (SEC): 2

B2: DtcycB (enzyme, Streptomyces sp. SANK 60404, UniProt M1VDX3 1-343, looked up)
chain: MDLPPALLSFYCPIASEVSPEHEAVAQEMYAWIHAMSLTSDNRQAKMLAQAGAGFNSYFTPRARGELARALSKYNVCAWIANGMVQEIRDPGTFGAMAARWARIMEEPATCPADGIPMDFALADAFSHIRRTLSPVKWQHFSAAQSHWMHGLAWENCLHQVKGLTVHDYLSFRYVMSGCFAAAAFAYAVPERHPSAEEWAHPKVRAAADAAMMVDALDNDRYSYLKESLTEADKKTIFAALRHENPALGREEVIVRGVQLRDRILTLYLTLRGELLCDASEGLRSYLTGLDLIIAGNLVFCADMGLRYGLPEGSVRTDAEPLDRTVAPPGIGAIDHWWAQAGA
Km (purified protein): 42.1 ± 7.3 µM | kcat (purified protein): 0.0217 s⁻¹ | stoichiometry N (SEC): 2
